How the values were obtained:
Assay in all cases: EMSA; up to 1:8 DNA:protein; AUC: 50 mM HEPES pH 7.4, 150 mM KCl, 1 mM EDTA, 20 C, DNA 0.5 uM in SV; EMSA: 10 mM Tris pH 8.0, 50 mM NaCl, 5% glycerol, 0.1% Triton X-100, 10 mM DTT, 1 mM EDT
Conditions in all cases: protein: recombinant; chain copies: 2; blunt
KdpE DBD R200A = target: T1, KdpE DBD R200A (Escherichia coli str. K-12 substr. …, UniProt P21866 124-225, R200A)
T1 sequence: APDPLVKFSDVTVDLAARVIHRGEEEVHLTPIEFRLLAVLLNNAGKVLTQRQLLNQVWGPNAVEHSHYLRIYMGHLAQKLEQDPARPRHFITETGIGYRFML

KdpE DBD T215A = target: T2, KdpE DBD T215A (Escherichia coli str. K-12 substr. …, UniProt P21866 124-225, T215A)
T2 sequence: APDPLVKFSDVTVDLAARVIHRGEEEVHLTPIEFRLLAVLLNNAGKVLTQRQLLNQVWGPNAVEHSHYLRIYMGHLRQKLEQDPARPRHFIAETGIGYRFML

KdpE DBD R193A = target: T3, KdpE DBD R193A (Escherichia coli str. K-12 substr. …, UniProt P21866 124-225, R193A)
T3 sequence: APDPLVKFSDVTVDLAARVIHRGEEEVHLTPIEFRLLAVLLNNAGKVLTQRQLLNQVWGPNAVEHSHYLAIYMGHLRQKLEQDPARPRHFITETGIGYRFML

Measured: binding result

B1: kdpFABCBS 30 bp (dsDNA)
DNA 1: CATTTTTATACTTTTTTTACACCCCGCCCG
DNA 2: CGGGCGGGGTGTAAAAAAAGTATAAAAATG
no binding: KdpE DBD R200A | KdpE DBD T215A | KdpE DBD R193A

Source: publication PMC3264566, “Structure-Function Studies of DNA Binding Domain of Response Regulator KdpE Reveals Equal Affinity Interactions at DNA Half-Sites”
